Measurements taken from PMC6488296.

B1: MBP-PIF6_(1-100)-His6 [A. thaliana] / PhyB_(1-651)-Avitag-His6 [modified: phycocyanobilin chromophore; biotin on the Avitag; phycocyanobilin chromophore; biotin on the Avitag] [A. thaliana] (parent)
chain 1: MMFLPTDYCCRLSDQEYMELVFENGQILAKGQRSNVSLHNQRTKSIMDLYEAEYNEDFMKSIIHGGGGAITNLGDTQVVPQSHVAAAHETNMLESNKHVD
chain 2: MVSGVGGSGGGRGGGRGGEEEPSSSHTPNNRRGGEQAQSSGTKSLRPRSNTESMSKAIQQYTVDARLHAVFEQSGESGKSFDYSQSLKTTTYGSSVPEQQITAYLSRIQRGGYIQPFGCMIAVDESSFRIIGYSENAREMLGIMPQSVPTLEKPEILAMGTDVRSLFTSSSSILLERAFVAREITLLNPVWIHSKNTGKPFYAILHRIDVGVVIDLEPARTEDPALSIAGAVQSQKLAVRAISQLQALPGGDIKLLCDTVVESVRDLTGYDRVMVYKFHEDEHGEVVAESKRDDLEPYIGLHYPATDIPQASRFLFKQNRVRMIVDCNATPVLVVQDDRLTQSMCLVGSTLRAPHGCHSQYMANMGSIASLAMAVIINGNEDDGSNVASGRSSMRLWGLVVCHHTSSRCIPFPLRYACEFLMQAFGLQLNMELQLALQMSEKRVLRTQTLLCDMLLRDSPAGIVTQSPSIMDLVKCDGAAFLYHGKYYPLGVAPSEVQIKDVVEWLLANHADSTGLSTDSLGDAGYPGAAALGDAVCGMAVAYITKRDFLFWFRSHTAKEIKWGGAKHHPEDKDDGQRMHPRSSFQAFLEVVKSRSQPWETAEMDAIHSLQLILRDSFKESEAAMNSKVVDGVVQPCRDMAGEQGIDELGA

Variants of: B1
Test: size exclusion chromatography (gel filtration, Superdex 200 10/300 GL, A671 nm)
Details: with PhyB_(1-651)-Avitag-His6 [modified: phycocyanobilin chromophore, PhyB illuminated with 660 nm light, PhyB:MBP-PIF 2:1 molar ratio, 60 min at room temperature, parent: 56, read off a plot

response (% PhyB-PIF complex) | Variant
64 | chain 1 C9S C10S
52 | chain 1 N35Q
57 | chain 1 S37A
54 | chain 1 C9S C10S N35Q
